From the supplement of paper PMC5998384 come the findings set out here.

Series [1] relates to HeLa Kyoto. Briefly: solubility change mitosis vs G1/S (difference of NP-40 vs SDS log2 ratios) (log2 ratio difference); higher = more soluble in mitosis.
The subject of series [2] is HeLa Kyoto. Briefly: solubility in G1/S (NP-40 vs SDS abundance) (log2 ratio); higher = more soluble. To be noted: cell cycle stage: G1/S.
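Wherever solubility change mitosis vs G1/S (difference of NP-40 vs SDS log2 ratios) is given: synchronized HeLa Kyoto cells (double thymidine block for G1/S, nocodazole release for mitosis), protein amounts in NP-40 versus SDS lysates quantified by mass spectrometry, three biological replicates.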
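Wherever solubility in G1/S (NP-40 vs SDS abundance) is given: HeLa Kyoto cells arrested at G1/S by double thymidine block, proteins quantified by TMT10plex mass spectrometry in mild NP-40 versus SDS extracts, three biological replicates.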

Turning to “MERLRDVRERLQAWERAFRRQRGRRPSQDDVEAAPEETRALYREYRTLKRTTGQAGGGLRSSESLPAAAEEAPEPRCWGPHLNRAATKSPQSTPGRSRQGSVPDYGQRLKANLKGTLQAGPALGRRPWPLGRASSKASTPKPPGTGPVPSFAEKVSDEPPQLPEPQPRPGRLQHLQASLSQRLGSLDPGWLQRCHSEVPDFLGAPKACRPDLGSEESQLLIPGESAVLGPGAGSQGPEASAFQEVSIRVGSPQPSSSGGEKRRWNEEPWESPAQVQQESSQAGPPSEGAGAVAVEEDPPGEPVQAQPPQPCSSPSNPRYHGLSPSSQARAGKAEGTAPLHIFPRLARHDRGNYVRLNMKQKHYVRGRALRSRLLRKQAWKQKWRKKGECFGGGGATVTTKESCFLNEQFDHWAAQCPRPASEEDTDAVGPEPLVPSPQPVPEVPSLDPTVLPLYSLGPSGQLAETPAEVFQALEQLGHQAFRPGQERAVMRILSGISTLLVLPTGAGKSLCYQLPALLYSRRSPCLTLVVSPLLSLMDDQVSGLPPCLKAACIHSGMTRKQRESVLQKIRAAQVHVLMLTPEALVGAGGLPPAAQLPPVAFACIDEAHCLSQWSHNFRPCYLRVCKVLRERMGVHCFLGLTATATRRTASDVAQHLAVAEEPDLHGPAPVPTNLHLSVSMDRDTDQALLTLLQGKRFQNLDSIIIYCNRREDTERIAALLRTCLHAAWVPGSGGRAPKTTAEAYHAGMCSRERRRVQRAFMQGQLRVVVATVAFGMGLDRPDVRAVLHLGLPPSFESYVQAVGRAGRDGQPAHCHLFLQPQGEDLRELRRHVHADSTDFLAVKRLVQRVFPACTCTCTRPPSEQEGAVGGERPVPKYPPQEAEQLSHQAAPGPRRVCMGHERALPIQLTVQALDMPEEAIETLLCYLELHPHHWLELLATTYTHCRLNCPGGPAQLQALAHRCPPLAVCLAQQLPEDPGQGSSSVEFDMVKLVDSMGWELASVRRALCQLQWDHEPRTGVRRGTGVLVEFSELAFHLRSPGDLTAEEKDQICDFLYGRVQARERQALARLRRTFQAFHSVAFPSCGPCLEQQDEERSTRLKDLLGRYFEEEEGQEPGGMEDAQGPEPGQARLQDWEDQVRCDIRQFLSLRPEEKFSSRAVARIFHGIGSPCYPAQVYGQDRRFWRKYLHLSFHALVGLATEELLQVAR [RECQL4]”, the “solubility change mitosis (log2)” value in the series on HeLa Kyoto [1] was found to be 0.0659. Further, the “solubility in G1/S (log2)” value in the series on HeLa Kyoto [2] is -0.103.
“MERVNDASCGPSGCYTYQVSRHSTEMLHNLNQQRKNGGRFCDVLLRVGDESFPAHRAVLAACSEYFESVFSAQLGDGGAADGGPADVGGATAAPGGGAGGSRELEMHTISSKVFGDILDFAYTSRIVVRLESFPELMTAAKFLLMRSVIEICQEVIKQSNVQILVPPARADIMLFRPPGTSDLGFPLDMTNGAALAANSNGIAGSMQPEEEAARAAGAAIAGQASLPVLPGVDRLPMVAGPLSPQLLTSPFPSVASSAPPLTGKRGRGRPRKANLLDSMFGSPGGLREAGILPCGLCGKVFTDANRLRQHEAQHGVTSLQLGYIDLPPPRLGENGLPISEDPDGPRKRSRTRKQVACEICGKIFRDVYHLNRHKLSHSGEKPYSCPVCGLRFKRKDRMSYHVRSHDGSVGKPYICQSCGKGFSRPDHLNGHIKQVHTSERPHKCQTCNASFATRDRLRSHLACHEDKVPCQVCGKYLRAAYMADHLKKHSEGPSNFCSICNRGFSSASYLKVHVKTHHGVPLPQVSRHQEPILNGGAAFHCARTYGNKEGQKCSHQDPIESSDSYGDLSDASDLKTPEKQSANGSFSCDMAVPKNKMESDGEKKYPCPECGSFFRSKSYLNKHIQKVHVRALGGPLGDLGPALGSPFSPQQNMSLLESFGFQIVQSAFASSLVDPEVDQQPMGPEGK [PATZ1]”: the “solubility change mitosis (log2)” value with HeLa Kyoto [1] was found to be 0.402. Also, the “solubility in G1/S (log2)” value with HeLa Kyoto [2] is -0.643.
Consider “MESTAYPLNLSLKEEEEEEEIQSRELEDGPADMQKVRICSEGGWVPALFDEVAIYFSDEEWEVLTEQQKALYREVMRMNYETVLSLEFPFPKPDMITRLEGEEESQNSDEWQLQGGTSAENEESDVKPPDWPNPMNATSQFPQPQHFDSFGLRLPRDITELPEWSEGYPFYMAMGFPGYDLSADDIAGKFQFSRGMRRSYDAGFKLMVVEYAESTNNCQAAKQFGVLEKNVRDWRKVKPQLQNAHAMRRAFRGPKNGRFALVDQRVAEYVRYMQAKGDPITREAMQLKALEIAQEMNIPEKGFKASLGWCRRMMRRYDLSLRHKVPVPQHLPEDLTEKLVTYQRSVLALRRAHDYEVAQMGNADETPICLEVPSRVTVDNQGEKPVLVKTPGREKLKITAMLGVLADGRKLPPYIILRGTYIPPGKFPSGMEIRCHRYGWMTEDLMQDWLEVVWRRRTGAVPKQRGMLILNGFRGHATDSVKNSMESMNTDMVIIPGGLTSQLQVLDVVVYKPLNDSVRAQYSNWLLAGNLALSPTGNAKKPPLGLFLEWVMVAWNSISSESIVQGFKKCHISSNLEEEDDVLWEIESELPGGGEPPKDCDTESMAESN [POGK]”, for which, in the series on HeLa Kyoto [1], the “solubility change mitosis (log2)” value was -0.0638. Moreover, the “solubility in G1/S (log2)” value in the series on HeLa Kyoto [2] was -0.0733.
Turning to “MFNRAVSRLSRKRPPSDIHDSDGSSSSSHQSLKSTAKWAASLENLLEDPEGVKRFREFLKKEFSEENVLFWLACEDFKKMQDKTQMQEKAKEIYMTFLSSKASSQVNVEGQSRLNEKILEEPHPLMFQKLQDQIFNLMKYDSYSRFLKSDLFLKHKRTEEEEEDLPDAQTAAKRASRIYNT [RGS10]”, the “solubility change mitosis (log2)” value with HeLa Kyoto [1] was found to be 0.405. In the series on HeLa Kyoto [2], the “solubility in G1/S (log2)” value came out at 0.563.
Regarding “MFRIEGLAPKLDPEEMKRKMREDVISSIRNFLIYVALLRVTPFILKKLDSI [TOMM5]”, the “solubility change mitosis (log2)” value in the series with HeLa Kyoto [1] was -0.172. Moreover, the “solubility in G1/S (log2)” value in the series on HeLa Kyoto [2] is -0.518.
As to “MGAVTDDEVIRKRLLIDGDGAGDDRRINLLVKSFIKWCNSGSQEEGYSQYQRMLSTLSQCEFSMGKTLLVYDMNLREMENYEKIYKEIECSIAGAHEKIAECKKQILQAKRIRKNRQEYDALAKVIQHHPDRHETLKELEALGKELEHLSHIKESVEDKLELRRKQFHVLLSTIHELQQTLENDEKLSEVEEAQEASMETDPKP [THOC7]”, the “solubility change mitosis (log2)” value in the series on HeLa Kyoto [1] amounted to 0.387. Further, in the series with HeLa Kyoto [2], the “solubility in G1/S (log2)” value is -0.022.
Take “MGDAGSERSKAPSLPPRCPCGFWGSSKTMNLCSKCFADFQKKQPDDDSAPSTSNSQSDLFSEETTSDNNNTSITTPTLSPSQQPLPTELNVTSPSKEECGPCTDTAHVSLITPTKRSCGTDSQSENEASPVKRPRLLENTERSEETSRSKQKSRRRCFQCQTKLELVQQELGSCRCGYVFCMLHRLPEQHDCTFDHMGRGREEAIMKMVKLDRKVGRSCQRIGEGCS [ZFAND3]”: the “solubility change mitosis (log2)” value with HeLa Kyoto [1] is -0.0341. Also, the “solubility in G1/S (log2)” value in the series on HeLa Kyoto [2] was determined as 0.216.
“MGDNPFQPKSNSKMAELFMECEEEELEPWQKKVKEVEDDDDDEPIFVGEISSSKPAISNILNRVNPSSYSRGLKNGALSRGITAAFKPTSQHYTNPTSNPVPASPINFHPESRSSDSSVIVQPFSKPGYITNSSRVVSNKSSELLFDLTQDTGLSHYQGGPTLSMAGMSESSFLSKRPSTSEVNNVNPKKPKPSESVSGANSSAVLPSVKSPSVTSSQAMLAKGTNTSSNQSKNGTPFPRACPKCNIHFNLLDPLKNHMKYCCPDMINNFLGLAKTEFSSTVNKNTTIDSEKGKLIMLVNDFYYGKHEGDVQEEQKTHTTFKCFSCLKILKNNIRFMNHMKHHLELEKQSSESWENHTTCQHCYRQFPTPFQLQCHIESTHTPHEFSTICKICELSFETEHVLLQHMKDNHKPGEMPYVCQVCNYRSSSFSDVETHFRTSHENTKNLLCPFCLKVIKIATPYMHHYMKHQKKGIHRCTKCRLQFLTCKEKMDHKTQHHRTFIKPKQLEGLPPGTKVTIRASVGPLQSGASPTPSISASASTLQLSPPRTKNITAKNPAKSNTSKPNTVKSNASKPNTSKPNGSKSKYKPKISNMQKKQSTLASSNKKSKVNTALRNLRYRRGIHKCIECCSEIKDFANHFPTYVHCSFCRYNTSCSKAYVNHMMSFHSNRPSKRFCIFKKHSENLRGITLVCLNCDFLSDVSGLDNMATHLSQHKTHTCQVVMQKVSVCIPTSEHLSELKKEAPAKEQEPVSKEIARPNMAERETETSNSESKQDKAASSKEKNGCNANSFEGSSTTKSEESITVSDKENETCLADQETGSKNIVSCDSNIGADKVEKKKQIQHVCQEMELKMCQSSENIILSDQIKDHNSSEARFSSKNIKDLRLASDNVSIDQFLRKRHEPESVSSDVSEQGSIHLEPLTPSEVLEYEATEILQKGSGDPSAKTDEVVSDQTDDIPGGNNPSTTEATVDLEDEKERS [ZNF280D]”: the “solubility change mitosis (log2)” value with HeLa Kyoto [1] was found to be 0.447. The “solubility in G1/S (log2)” value in the series on HeLa Kyoto [2] is -0.86.
As for “MGETKIIYHLDGQETPYLVKLPLPAERVTLADFKGVLQRPSYKFFFKSMDDDFGVVKEEISDDNAKLPCFNGRVVSWLVSAEGSHPDPAPFCADNPSELPPPMERTGGIGDSRPPSFHPHAGGGSQENLDNDTETDSLVSAQRERPRRRDGPEHATRLNGTAKGERRREPGGYDSSSTLMSSELETTSFFDSDEDDSTSRFSSSTEQSSASRLMRRHKRRRRKQKVSRIERSSSFSSITDSTMSLNIITVTLNMEKYNFLGISIVGQSNERGDGGIYIGSIMKGGAVAADGRIEPGDMLLQVNEINFENMSNDDAVRVLREIVHKPGPITLTVAKCWDPSPRGCFTLPRSEPIRPIDPAAWVSHTAAMTGTFPAYGMSPSLSTITSTSSSITSSIPDTERLDDFHLSIHSDMAAIVKAMASPESGLEVRDRMWLKITIPNAFIGSDVVDWLYHNVEGFTDRREARKYASNLLKAGFIRHTVNKITFSEQCYYIFGDLCGNMANLSLHDHDGSSGASDQDTLAPLPHPGAAPWPMAFPYQYPPPPHPYNPHPGFPELGYSYGGGSASSQHSEGSRSSGSNRSGSDRRKEKDPKAGDSKSGGSGSESDHTTRSSLRGPRERAPSERSGPAASEHSHRSHHSLASSLRSHHTHPSYGPPGVPPLYGPPMLMMPPPPAAMGPPGAPPGRDLASVPPELTASRQSFRMAMGNPSEFFVDVM [DVL3]”, in the series on HeLa Kyoto [1], the “solubility change mitosis (log2)” value is -0.17. Further, in the series with HeLa Kyoto [2], the “solubility in G1/S (log2)” value is -0.0796.
On to “MGHPPLEFSDCYLDSPDFRERLKCYEQELERTNKFIKDVIKDGNALISAMRNYSSAVQKFSQTLQSFQFDFIGDTLTDDEINIAESFKEFAELLNEVENERMMMVHNASDLLIKPLENFRKEQIGFTKERKKKFEKDGERFYSLLDRHLHLSSKKKESQLQEADLQVDKERHNFFESSLDYVYQIQEVQESKKFNIVEPVLAFLHSLFISNSLTVELTQDFLPYKQQLQLSLQNTRNHFSSTREEMEELKKRMKEAPQTCKLPGQPTIEGYLYTQEKWALGISWVKYYCQYEKETKTLTMTPMEQKPGAKQGPLDLTLKYCVRRKTESIDKRFCFDIETNERPGTITLQALSEANRRLWMEAMDGKEPIYHSPITKQQEMELNEVGFKFVRKCINIIETKGIKTEGLYRTVGSNIQVQKLLNAFFDPKCPGDVDFHNSDWDIKTITSSLKFYLRNLSEPVMTYRLHKELVSAAKSDNLDYRLGAIHSLVYKLPEKNREMLELLIRHLVNVCEHSKENLMTPSNMGVIFGPTLMRAQEDTVAAMMNIKFQNIVVEILIEHFGKIYLGPPEESAAPPVPPPRVTARRHKPITISKRLLRERTVFYTSSLDESEDEIQHQTPNGTITSSIEPPKPPQHPKLPIQRSGETDPGRKSPSRPILDGKLEPCPEVDVGKLVSRLQDGGTKITPKATNGPMPGSGPTKTPSFHIKRPAPRPLAHHKEGDADSFSKVRPPGEKPTIIRPPVRPPDPPCRAATPQKPEPKPDIVAGNAGEITSSVVASRTRFFETASRKTGSSQGRLPGDES [OPHN1]”, for which the “solubility change mitosis (log2)” value in the series on HeLa Kyoto [1] is -0.0995. The “solubility in G1/S (log2)” value with HeLa Kyoto [2] is -0.348.
